This note sets out measurements from article doi:10.1101/2024.04.02.587704.

This test addresses ReoM-His from the ΔprkA ΔmurZ strain LMPR29 (unphosphorylated at Thr-7) (L. monocytogenes) (UniProt B8DE07). Put plainly: cross-linking + pull-down.
UniProt B8DE07, sequence (B8DE07 whole entry, stated change not applied): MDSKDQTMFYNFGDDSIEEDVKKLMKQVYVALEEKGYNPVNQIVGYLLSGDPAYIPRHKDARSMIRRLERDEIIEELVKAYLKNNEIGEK

B1: MurA (L. monocytogenes UDP-N-acetylglucosamine 1-carboxyvinyltransferase) (enzyme)
chain: MEKIIVRGGKQLNGSVKMEGAKNAVLPVIAATLLASKGTSVLKNVPNLSDVFTINEVLKYLNADVSFVNDEVTVDATGEITSDAPFEYVRKMRASIVVMGPLLARTGSARVALPGGCAIGSRPVDLHLKGFEAMGAVVKIENGYIEATAEKLVGAKVYLDFPSVGATQNIMMAATLAEGTTVIENVAREPEIVDLANFLNQMGARVIGAGTEVIRIEGVKELTATEHSIIPDRIEAGTFMIAAAITGGNVLIEDAVPEHISSLIAKLEEMGVQIIEEENGIRVIGPDKLKAVDVKTMPHPGFPTDMQSQMMVIQMLSEGTSIMTETVFENRFMHVEEMRRMNADMKIEGHSVIISGPAKLQGAEVAATDLRAAAALILAGLVADGYTQVTELKYLDRGYNNFHGKLQALGADVERVDDSKVDVTNLASLF
Take B1: the fold MurA copurified, against the prkA+ strain came to 3 fold.
